± gives the uncertainty stated by the source.
B1: Ankyrin-2, residues 3571 to 3650; numbered along this chain, Q01484 (parent)
chain: ERLAYIADHLGFSWTELARELDFTEEQIHQIRIENPNSLQDQSHALLKYWLERDGKHATDTNLVECLTKINRMDIVHLME

Variants of: B1
Test: abundance fitness (aPCA) (normalised: wild type 0, dead -1); higher = more abundant; growth selection in yeast, the domain comes from the species named
Settings: Homo sapiens

| Variant | abundance fitness |
| --- | --- |
| D41M | -0.019 ± 0.079 |
| D41G | 0.006 ± 0.05 |
| D41L | -0.038 ± 0.05 |
| D41S | -0.005 ± 0.054 |
| D41K | -0.034 ± 0.14 |
| D41W | -0.2 ± 0.12 |
| D41V | -0.065 ± 0.057 |
| D41N | -0.02 ± 0.09 |
| D41P | -0.243 ± 0.071 |
| D41Y | -0.213 ± 0.074 |
| D41I | 0.004 ± 0.066 |
| D41T | -0.013 ± 0.075 |
| D41R | -0.058 ± 0.05 |
| D41Q | -0.024 ± 0.11 |
| H57C | -0.062 ± 0.07 |
| H57L | -0.093 ± 0.064 |
| H57N | -0.002 ± 0.13 |
| H57V | 0 ± 0.092 |
| H57W | -0.065 ± 0.09 |
| H57K | 0.056 ± 0.16 |
| H57F | -0.107 ± 0.084 |
| H57G | -0.019 ± 0.052 |
| H57D | -0.061 ± 0.11 |
| H57M | 0.004 ± 0.085 |

| Variant | abundance fitness |
| --- | --- |
| H57S | 0.06 ± 0.058 |
| H57P | 0.009 ± 0.067 |
| H57E | 0.101 ± 0.13 |
| H57R | -0.052 ± 0.058 |
| L47V | -0.034 ± 0.062 |
| L47K | -0.412 ± 0.17 |
| L47N | -0.582 ± 0.23 |
| L47R | -0.541 ± 0.062 |
| L47C | -0.163 ± 0.094 |
| L47W | -0.238 ± 0.079 |
| L47G | -0.409 ± 0.06 |
| L47A | -0.191 ± 0.065 |
| L47M | 0.123 ± 0.098 |
| L47S | -0.462 ± 0.058 |
| L47Q | -0.626 ± 0.1 |
| L47T | -0.026 ± 0.059 |
| L47P | -1.28 ± 0.16 |
| L47E | -0.673 ± 0.057 |
| L47Y | -0.148 ± 0.18 |
| L47H | -0.592 ± 0.3 |
| L47D | -0.935 ± 0.45 |
| L47I | -0.061 ± 0.11 |
| L47F | 0.046 ± 0.13 |
| A45V | 0.101 ± 0.11 |

| Variant | abundance fitness |
| --- | --- |
| A45L | -0.002 ± 0.13 |
| A45D | 0.097 ± 0.29 |
| A45H | -0.197 ± 0.15 |
| A45C | -0.189 ± 0.25 |
| A45R | -0.002 ± 0.27 |
| A45G | -0.231 ± 0.21 |
| L51T | 0.017 ± 0.17 |
| L51V | -0.087 ± 0.1 |
| L51G | -0.154 ± 0.13 |
| L51F | 0.037 ± 0.17 |
| L51P | -0.272 ± 0.079 |
| L51A | -0.165 ± 0.1 |
| L51R | -0.072 ± 0.065 |
| L51N | -0.123 ± 0.13 |
| L51S | -0.107 ± 0.075 |
| L51H | -0.034 ± 0.28 |
| L51Y | 0.031 ± 0.091 |
| L51C | -0.236 ± 0.16 |
| L51W | -0.106 ± 0.17 |
| L51E | -0.111 ± 0.22 |
| L51D | -0.058 ± 0.11 |
| L51Q | 0.104 ± 0.13 |
| L51I | -0.015 ± 0.2 |
| T59Q | 0.008 ± 0.074 |

| Variant | abundance fitness |
| --- | --- |
| T59D | -0.103 ± 0.12 |
| T59W | -0.099 ± 0.062 |
| T59L | -0.04 ± 0.061 |
| T59C | -0.095 ± 0.1 |
| T59M | -0.124 ± 0.13 |
| T59F | -0.159 ± 0.099 |
| T59V | -0.106 ± 0.071 |
| T59G | -0.088 ± 0.05 |
| T59H | -0.055 ± 0.08 |
| T59Y | 0.121 ± 0.13 |
| T59R | -0.087 ± 0.047 |
| T59E | -0.069 ± 0.088 |
| T59K | -0.025 ± 0.2 |
| T59S | 0.036 ± 0.046 |
| T59N | -0.054 ± 0.21 |
| T59A | -0.035 ± 0.059 |
| G55Q | 0.008 ± 0.047 |
| G55E | -0.033 ± 0.044 |
| G55L | -0.017 ± 0.031 |
| G55A | -0.013 ± 0.034 |
| G55N | 0.028 ± 0.081 |
| G55K | -0.094 ± 0.066 |
| G55W | -0.112 ± 0.063 |
| G55S | -0.045 ± 0.036 |

| Variant | abundance fitness |
| --- | --- |
| G55H | -0.041 ± 0.072 |
| G55F | -0.143 ± 0.051 |
| G55I | -0.089 ± 0.064 |
| G55T | -0.026 ± 0.037 |
| G55P | -0.035 ± 0.036 |
| G55V | -0.038 ± 0.034 |
| G55D | 0.041 ± 0.073 |
| G55M | -0.061 ± 0.051 |
| G55C | -0.114 ± 0.077 |
| G55Y | -0.052 ± 0.066 |
| E52C | -0.132 ± 0.052 |
| E52S | -0.057 ± 0.062 |
| E52M | -0.083 ± 0.12 |
| E52H | -0.09 ± 0.12 |
| E52K | 0.036 ± 0.13 |
| E52Y | -0.393 ± 0.098 |
| E52A | 0.037 ± 0.094 |
| E52L | 0.012 ± 0.081 |
| E52T | 0.006 ± 0.087 |
| E52D | -0.178 ± 0.13 |
| E52W | -0.045 ± 0.12 |
| E52Q | 0.088 ± 0.12 |
| E52F | -0.034 ± 0.14 |
| E52P | -0.378 ± 0.12 |

| Variant | abundance fitness |
| --- | --- |
| E52G | -0.146 ± 0.055 |
| E52I | -0.039 ± 0.11 |
| E52R | -0.045 ± 0.088 |
| E52V | 0.006 ± 0.063 |
| R53P | -0.216 ± 0.055 |
| R53Y | -0.166 ± 0.19 |
| R53M | -0.109 ± 0.098 |
| R53T | -0.029 ± 0.072 |
| R53S | 0.005 ± 0.056 |
| R53K | -0.029 ± 0.16 |
| R53A | -0.052 ± 0.063 |
| R53N | -0.144 ± 0.17 |
| R53C | -0.086 ± 0.098 |
| R53D | -0.413 ± 0.16 |
| R53H | -0.092 ± 0.15 |
| R53G | -0.117 ± 0.055 |
| R53V | -0.067 ± 0.07 |
| R53L | -0.236 ± 0.068 |
| R53W | 0.002 ± 0.079 |
| Y49F | 0.02 ± 0.15 |
| Y49V | 0.068 ± 0.078 |
| Y49R | -0.129 ± 0.056 |
| Y49K | -0.052 ± 0.18 |
| Y49L | 0.017 ± 0.071 |

| Variant | abundance fitness |
| --- | --- |
| Y49C | 0.037 ± 0.11 |
| Y49A | 0.016 ± 0.065 |
| Y49G | 0.042 ± 0.055 |
| Y49S | -0.001 ± 0.051 |
| Y49P | -0.513 ± 0.064 |
| Y49D | -0.031 ± 0.12 |
| Y49N | -0.056 ± 0.12 |
| Y49W | -0.117 ± 0.12 |
| Y49M | 0.059 ± 0.1 |
| Y49I | -0.009 ± 0.13 |
| K48R | 0.01 ± 0.056 |
| K48M | -0.2 ± 0.17 |
| K48E | -0.027 ± 0.19 |
| K48P | -0.848 ± 0.075 |
| K48Q | -0.097 ± 0.11 |
| K48T | 0.04 ± 0.058 |
| K48F | -0.053 ± 0.15 |
| K48S | -0.094 ± 0.055 |
| K48N | 0.028 ± 0.14 |
| K48W | -0.171 ± 0.11 |
| K48C | 0.054 ± 0.14 |
| K48L | 0.02 ± 0.068 |
| K48I | -0.164 ± 0.17 |
